Data taken from patent publication US10358467B2, “Therapeutic targets for cancer progression” (The Regents of the University of California, priority 2015, dated 2019).
One block for each molecule: values may come before it.

Legend:
[1] = system: Rac1; experiment: Rac1 activity pulldown assay with GST-PBD in HeLa cells; type: cell-based; conditions: 10 μM, 6 h, DAPLE-depleted HeLa cells transfected with myc-DAPLE WT
Procedure: Rac1 activity in HeLa cells lines was monitored using GST-tagged PAK1-binding domain (PBD; pGEX-PBD) as described previously (Benard & Bokoch, 2002). Briefly, Escherichia coli strain BL21 bacteria transformed with pGEX-PBD were grown at 37° C. and GST-PBD expression was induced at OD600 with 1 mM IPTG for 3 h at 37° C. with shaking. Bacterial lysates were prepared as described above in protein purification section, cleared of debris by centrifugation and subsequently aliquots of lysates were stored at −80° C. until use. Aliquots of bacterial lysates were thawed, cleared of precipitated proteins by centrifugation at 14,000×g for 20 min, and the cleared supernatant was subsequently incubated with glutathione beads overnight at 4° C. with constant tumbling to prepare purified bead-bound GST-PBD freshly for each assay.
To analyze the role of DAPLE in regulation of Rac1 activity HeLa cells were used. For assays done on cells at steady-state, cells were maintained overnight in a media containing 2% or 0.2% FBS prior to lysis. […]

[2] = system: Akt; experiment: Akt phosphorylation (pAkt S473) immunoblot in HeLa cells; type: cell-based; conditions: 10 μM, 6 h, DAPLE-depleted HeLa cells transfected with myc-DAPLE WT
Procedure: For immunoblotting, protein samples were separated by SDS-PAGE and transferred to PVDF membranes (Millipore). Membranes were blocked with PBS supplemented with 5% nonfat milk (or with 5% BSA when probing for phosphorylated proteins) before incubation with primary antibodies. Infrared imaging with two-color detection and band densitometry quantifications were performed using a Li-Cor Odyssey imaging system exactly as done previously (Garcia-Marcos et al, 2011a; Garcia-Marcos et al, 2010; Garcia-Marcos et al, 2012; Garcia-Marcos et al, 2011b; Ghosh et al, 2010). All Odyssey images were processed using Image J software (NIH) and assembled into figure panels using Photoshop and Illustrator software (Adobe).

[3] = molecular target: T1, Gαi2 (Rattus norvegicus, UniProt P04897); experiment: GST pulldown of His-DAPLE-CT with GST-Gαi2; type: binding; conditions: compared to Gαi1 and Gαi3
T1 construct: made in house; host or cells: E. coli BL21 (DE3)
T1 sequence (P04897 whole entry): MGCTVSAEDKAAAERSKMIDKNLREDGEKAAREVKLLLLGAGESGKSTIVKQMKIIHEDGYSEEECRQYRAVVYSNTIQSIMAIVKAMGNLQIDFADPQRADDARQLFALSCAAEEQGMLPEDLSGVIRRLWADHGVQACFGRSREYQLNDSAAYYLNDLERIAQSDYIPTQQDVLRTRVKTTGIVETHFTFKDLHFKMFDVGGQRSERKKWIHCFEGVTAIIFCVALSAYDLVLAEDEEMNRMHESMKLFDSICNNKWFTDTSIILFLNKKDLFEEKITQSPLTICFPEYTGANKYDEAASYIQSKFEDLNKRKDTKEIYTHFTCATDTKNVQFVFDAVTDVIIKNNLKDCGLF

[4] = molecular target: T2, His-Gαi3 (Rattus norvegicus, UniProt P08753); experiment: GTPγS binding assay; type: biochemical; conditions: 0-2 μM, 15 min
T2 construct: His; made in house; host or cells: E. coli BL21 (DE3)
Procedure: GTPγS binding was measured using a filter binding method as described previously (Garcia-Marcos et al, 2010; Garcia-Marcos et al, 2011b). His-Gαi3 (100 nM) was preincubated with different concentrations of His-DAPLE-CT (aa 1650-2028) for 15 min at 30° C. in assay buffer [20 mM Na-HEPES, pH 8, 100 mM NaCl, 1 mM EDTA, 25 mM MgCl2, 1 mM DTT, 0.05% (w:v) C12E10]. Reactions were initiated at 30° C. by adding an equal volume of assay buffer containing 1 μM [^35S] GTPγS (˜50 c.p.m/fmol). Duplicate aliquots (25 μl) were removed at different time points, and binding of radioactive nucleotide was stopped by addition of 3 ml, ice-cold wash buffer (20 mM Tris-HCl, pH 8.0, 100 mM NaCl, 25 mM MgCl2). The quenched reactions were rapidly passed through BA-85 nitrocellulose filters (GE Healthcare) and washed with 4 ml wash buffer. Filters were dried and subjected to liquid scintillation counting. To determine the specific nucleotide binding, the background [^35S]GTPγS detected in the absence of G protein was subtracted from each reaction and data expressed as percentage of the [^35S] GTPγS bound by His-Gαi3 in the absence of His-DAPLE-CT.

[5] = molecular target: T3, GST-Gαi3·Gβγ preformed complexes (Rattus norvegicus, UniProt P08753); experiment: Gβγ displacement assay; type: binding; conditions: 0.05-1 μM WT or 1 μM F1675A
T3 construct: made in house; host or cells: E. coli BL21 (DE3) for GST-Gαi3; Gβγ endogenous from HEK293T lysate
Procedure: This assay was performed as described previously (Garcia-Marcos et al, 2009). Briefly, GST alone or GST-Gαi3 proteins immobilized on glutathione-agarose beads were incubated overnight at 4° C. with HEK293T cell lysates in binding buffer [50 mM Tris-HCl, pH 7.4, 100 mM NaCl, 0.4% (v:v) NP-40, 10 mM MgCl2, 5 mM EDTA, 2 mM DTT, protease inhibitor cocktail supplemented with 30 μM GDP]. Unbound Gβγ-subunits were washed twice with the same buffer and proteins bound to the glutathione-agarose beads divided into equal aliquots containing ˜5 μg (˜0.4 μM) GST-fusion proteins. Aliquots were incubated with increasing concentrations (0.05-1 μM) of purified His-DAPLE-CT (1650-2028) wild-type or 1 μM His-DAPLE-CT F1675A in binding buffer supplemented with GDP (˜200 μl) for 5 h at 4° C. Glutathione-agarose beads were washed and bound proteins eluted by boiling in Laemmli sample buffer and separated by SDS-PAGE.

[6] = molecular target: T4, Gαo (Rattus norvegicus, UniProt P59215); experiment: GST pulldown of His-DAPLE-CT with GST-Gαo; type: binding
T4 construct: made in house; host or cells: E. coli BL21 (DE3)
T4 sequence (P59215 whole entry): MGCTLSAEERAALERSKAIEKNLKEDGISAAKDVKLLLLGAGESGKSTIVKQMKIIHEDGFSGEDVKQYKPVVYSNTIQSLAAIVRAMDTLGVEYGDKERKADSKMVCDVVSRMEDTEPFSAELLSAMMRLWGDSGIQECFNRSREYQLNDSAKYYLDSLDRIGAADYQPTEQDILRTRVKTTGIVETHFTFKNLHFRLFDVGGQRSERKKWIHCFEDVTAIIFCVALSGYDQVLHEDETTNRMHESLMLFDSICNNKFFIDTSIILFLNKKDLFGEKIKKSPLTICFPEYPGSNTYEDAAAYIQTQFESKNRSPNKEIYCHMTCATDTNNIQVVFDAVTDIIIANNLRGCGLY

[7] = molecular target: T5, Gαi1 (Rattus norvegicus, UniProt P10824); experiment: GST pulldown of His-DAPLE-CT with GST-Gαi1; type: binding
T5 construct: made in house; host or cells: E. coli BL21 (DE3)
T5 sequence (P10824 whole entry): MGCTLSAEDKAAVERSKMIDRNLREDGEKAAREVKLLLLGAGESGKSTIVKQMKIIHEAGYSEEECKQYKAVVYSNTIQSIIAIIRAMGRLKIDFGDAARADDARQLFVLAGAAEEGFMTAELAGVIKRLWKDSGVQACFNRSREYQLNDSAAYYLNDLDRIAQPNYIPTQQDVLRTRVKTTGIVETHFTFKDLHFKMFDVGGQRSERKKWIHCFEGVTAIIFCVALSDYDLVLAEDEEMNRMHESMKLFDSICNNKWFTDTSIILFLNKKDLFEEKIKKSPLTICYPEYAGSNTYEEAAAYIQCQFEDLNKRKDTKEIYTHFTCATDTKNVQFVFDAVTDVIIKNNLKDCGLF

[8] = molecular target: T2, His-Gαi3; experiment: Steady-state GTPase assay; type: biochemical; conditions: in vitro assays
Procedure: Under the experimental conditions of steady-state GTPase assays, GTP hydrolysis occurs as a two-step reaction, i.e., 1) GDP is released from the G protein and exchanged for GTP, and 2) the GTP loaded is hydrolyzed. Nucleotide exchange is the rate limiting step in this process because it is ˜50-100 times slower than GTP hydrolysis by Gαi subunits (Mukhopadhyay & Ross, 2002). Thus, the steady-state GTPase activity reflects the rate of nucleotide exchange, and was performed as described previously (Garcia-Marcos et al, 2010; Garcia-Marcos et al, 2012; Garcia-Marcos et al, 2011b). Briefly, His-Gαi3 (100 nM) was preincubated with different concentrations of His-DAPLE-CT (aa 1650-2028) for 15 min at 30° C. in assay buffer [20 mM Na-HEPES, pH 8, 100 mM NaCl, 1 mM EDTA, 2 mM MgCl2, 1 mM DTT, 0.05% (w:v) C12E10]. GTPase reactions were initiated at 30° C. by adding an equal volume of assay buffer containing 1 μM [γ-^32P]GTP (˜50 c.p.m/fmol). […] Samples were then centrifuged for 10 min at 10,000×g, and 500 μl of the resultant supernatant were scintillation counted to quantify released [^32P]Pi. For the time course experiments, data was expressed as raw c.p.m. For the dose-dependence curve experiments, the background [^32P]Pi detected at 15 min in the absence of G protein was subtracted from each reaction and data expressed as percentage of the Pi produced by His-Gαi3 in the absence of His-DAPLE-CT.

[9] = molecular target: T6, Gαi3 (Rattus norvegicus, UniProt P08753); experiment: GST pulldown of His-DAPLE-CT with GST-Gαi3; type: binding
T6 construct: made in house; host or cells: E. coli BL21 (DE3)
Procedure: Purified GST-Gαi3 or GST alone (5 μg) were immobilized on glutathione-Sepharose beads and incubated with binding buffer [50 mM Tris-HCl (pH 7.4), 100 mM NaCl, 0.4% (v:v) Nonidet P-40, 10 mM MgCl2, 5 mM EDTA, 30 μM GDP, 2 mM DTT, protease inhibitor mixture] for 90 min at room temperature as described before (Garcia-Marcos et al, 2011a; Ghosh et al, 2010; Ghosh et al, 2008; Lin et al, 2011). Lysates (˜250 μg) of Cos7 cells expressing appropriate myc-DAPLE constructs or purified His-DAPLE-CT (aa 1650-2028) protein (3 μg) were added to each tube, and binding reactions were carried out for 4 h at 4° C. with constant tumbling in binding buffer [50 mM Tris-HCl (pH 7.4), 100 mM NaCl, 0.4% (v:v) Nonidet P-40, 10 mM MgCl2, 5 mM EDTA, 30 μM GDP, 2 mM DTT]. Beads were washed (4×) with 1 mL of wash buffer [4.3 mM Na2HPO4, 1.4 mM KH2PO4 (pH 7.4), 137 mM NaCl, 2.7 mM KCl, 0.1% (v:v) Tween 20, 10 mM MgCl2, 5 mM EDTA, 30 μM GDP, 2 mM DTT] and boiled in Laemmli's sample buffer. In some experiments the ‘active’ conformation of the G protein was stabilized by replacing GDP in the binding and wash buffers with 30 μM GTPγS or a mixture of 30 μM GDP/30 μM AlCl3/10 mM NaF. Immunoblot quantification was performed by infrared imaging following the manufacturer's protocols using an Odyssey imaging system (Li-Cor Biosciences).

[10] = molecular target: T7, GST-FZD7R-CT (Homo sapiens, UniProt O75084); experiment: GST-FZD7-CT pulldown of His-Gαi3; type: binding; conditions: His-Gαi3 preloaded with GDP, in the presence of DAPLE-CT
T7 construct: the GST-tagged cytoplasmic tail of FZD7R; made in house; host or cells: bacteria (E. coli BL21 (DE3)); plasmid a gift of R. Yao
Procedure: GST-FZD7-CT and GST-PBD constructs were immobilized on glutathione-Sepharose beads directly from bacterial lysates by overnight incubation at 4° C. with constant tumbling. Next morning, GST-FZD7-CT immobilized on glutathione beads were washed and subsequently incubated with His-tagged DAPLE-CT or Gαi3 proteins at 4° C. with constant tumbling. Washes and immunoblotting were performed as previously.

Molecule: O=C1OC2(c3ccccc31)c1ccc(O)c(O)c1Oc1c2ccc(O)c1O [Gallein]
Rac1 activity [1]: effectively inhibited | Akt activity [2]: effectively inhibited

binding to Gαi2 [3]: partially reduced | displacement of Gβγ from pre-assembled complex with GST-Gαi3 [5]: displaced | binding to Gαo [6]: not with Gαo | binding to Gαi1 [7]: interacts | GEF activity, activation of nucleotide exchange [8]: 2.5-3 fold | binding to Gαi3 [9]: interacts | increase of Gαi3 binding to GST-FZD7R-CT [10]: ~5 fold
B1: His-DAPLE-CT: purified His-tagged DAPLE C-terminus (aa 1650-2028, containing the GBA motif) (protein, listed as Homo sapiens)
chain: GTAPPYVGVRPCSASPSSEMVTLEEFLEESNRSSPTHDTPSCRDDLLSDYFRKASDPPAIGGQPGPPAKKEGAKMPTNFVAPTVKMAAPTSEGRPLKPGQYVKPNFRLTEAEAPPSVAPRQAQPPQSLSLGRPRQAPVPPASHAPASRSASLSRAFSLASADLLRASGPEACKQESPQKLGAPEALGGRETGSHTLQSPAPPSSHSLARERTPLVGKAGSSCQGPGPRSRPLDTRRFSLAPPKEERLAPLHQSATAPAIATAGAGAAAAGSGSNSQLLHFSPAAAPAARTKPKAPPRSGEVATITPVRAGLSLSEGDGVPGQGCSEGLPAKSPGRSPDLAPHLGRALEDCSRGSVSKSSPASPEPGGDPQTVWYEYGCV
modifications: His tag
initial rate of nucleotide (GTPγS) binding by His-Gαi3 [4]: increased
